This passage reports FOB and OD450 nm results from patent publication US20250019450A1 (DIAGONAL THERAPEUTICS, published 2025).

The labels stand for the following.
B1: VHH108B1 (VHH)
VHH: EVQLVESGGGLVQPGGSLTLSCTASGFRFSDRSMGWYRQAPGKQRELVAAITVGGSTNYADSVKGRFTISRDNAKNTVYLQMNSLKPEDTALYYCNRRYPPDDYWGQGTQVTVSS
B2: VHH187B1 (VHH)
VHH: EVQLVESGGGLVQPGGSLRLSCAASGFTLDYYAIGWFRQAPGKEREGVSCISSSDRSTWYADSVKGRFTISRDNAKNTVYLQMHSLKPEDTAVYYCATPCYSDYDPEGYEYDYWGQGTQVTVSS
B3: VHH136B1 (VHH)
VHH: QVQLQESGGGLVQAGGSLRLSCAAPGRYAVGWFRQAPGKEYEFVAAITVSGGSKYYEDSVKGRFTISRDNAKNTVYLEMNSLKAEDTAVYYCAARTPKFGSGWYNRRGEYDYWGQGTQVTVSS
B4: VHH58B1 (VHH)
VHH: B3 VHH with Q5V, T65A, E78Q
B5: VHH172B1 (VHH)
VHH: B3 VHH with Q5V, T120A
B6: VHH97B1 (VHH)
VHH: QVQLVESGGGLAQAGGSLRLSCAASGRTFSNDDMAWFRQAPGKEREFVAHIDRNAASTNYADSVKGRFTISRDNAKNTVYLQMTRLKPEDTAVYYCAADPDHFGTTWYQQYTYWGPGTQVTVSS
B7: VHH174B1 (VHH)
VHH: QVQLVESGGGAVQAGGSLRLSCAASGLTSRHYVMAWFRQAPGIEREFVASIWWGGSTYYADSVKDRFTISRDNAENTVYLQMNSLKPEDTAVYRCAVGTKIGTMGPRYDYWGQGTQVTVSS
B8: VHH195B1 (VHH)
VHH: QVQLVESGGGLVQAGGSLRLSCAASGRTFGTYAMGWFRQAPGKERDFVARISNSGAFTHYADSVKGRFTISRDNAKNTVYLHMNSLENGDTAAYYCVATRGTNSAYYTRSTMYEYWGQGTQVTVSS
B9: VHH25B1 (VHH)
VHH: QVQLQESGGALVQPGGSLRLSCVVSGFTSDYFAIGWFRQAPGKEREGVSCIGSSDGSTIYSDSVKGRFTISRDNAKNTVYLQMNSLKPEDTGVYYCALDRGRRTIIGYACYATMKYWGKGTPVTVSS
B10: VHH41B1 (VHH)
VHH: EVQLVESGGGLVQAGGSLRVACAASGRTFSTYAMAWFRQAPGKEREFVAHILWSGGSTVYPDSVRGRFTISRDNAKNTVYLQMNSLKPEDTAVYYCAQKSGRQVYRIDSWDSFDYWGQGTSVTVSS
B11: VHH32B1 (VHH)
VHH: EVQLVESGGGLVQPGGSLRLSCAASGFTFQNYAMSWLRKAPGEGLEWVSVINSGGGSTLYADSVKGRFTISRDNAKNTLYLQMHSLKSEDTAVYFCAKRRDDSTFGSLLYTHRGQGTQVTVSS
B12: VHH104B1 (VHH)
VHH: EVQLVESGGGLVQPGGSLRLFCAASRSIFNINIMGWYRQAPGKQREWLASITSGGSTFYADSVKDRFTISRDSVKNTVYLQMNSLKPEDTAAYYCNRYRSVPLNTVYPWGQGTLVTVSS
B13: VHH245B1 (VHH)
VHH: QVQLQESGGGLVQAGGSLRLSCAASGSIASINAMGWYRQAPGKQRDFVARIQLSGQTSYAHSVRGRFTISRDNAKNTVYLQMNNLKPEDTAVYVCAASNTGSLYGLRNYWGQGTQVTVSS
B14: VHH72B1 (VHH)
VHH: EVQLVESGGGLVQAGGSLRLSCAASGLTFRNYAMAWFRQAPGKEREFVAGITWGGGLTHYVDSVKGRFTISRDNGKNTVYLQMNSLKSEDTAVYYCAGKTQGSTWYHLTPDGYDYWGQGTQVTVSS
B15: VHH67B1 (VHH)
VHH: QVQLVESGGGLVQAGGSLRLSCAASARIFNSYAVAWFRQTPGKEREFVASISWSGGSTNYADSVKGRFTISRDNAKNTVFLQMNSLKPADTAVYYCAADRNYYPSVLGKYTYWGQGTQVTVSS
B16: VHH137B1 (VHH)
VHH: QVQLVESGGGLVQAGGSLRLSCAASGRTFRTYAMGWFRQAPGKDREVVGIAAWKVASTYYVDYGDSVRGRFTISRDDAKSTVYLQMNNLMPEDTAVYYCAAGAFRTDWRSYAYWGQGTQVTVSS
B17: VHH86B1 (VHH)
VHH: QVQLVESGGGLMQAGGSLRLSCALSRGIFSAYAMGWFRQVQGKEREFVSGISRSGSTTDYVDTAKGRFTISRDNARDTVYLQMNSLKPEDTAVYYCAAVTGTFPSSTYHNANAYHHWGQGTQVTVSS
B18: VHH50B1 (VHH)
VHH: QVQLVESGGGLVQAGGSLRLSCAASGRAFSRYSMGWFRQAPGKEREFVAANYWSNGWTDYADTVKGRFSISRDNAKNTVYLQMNSLKPEDTAVYYCAGRSSSIPSADVVGYDYWGQGTQVTVSS
B19: VHH258B1 (VHH)
VHH: QVQLVESGGGLVQAGGSLRLSCAASGRTFSSYVMGWFRQAPGQEREFVAAIMRNGIMTYYADSVKGRFTISRDNAKNTVYLQMNTLKPDDTAVYYCAAASRVGVSISQSSSYTSWGQGTQVTVSS
B20: VHH154B1 (VHH)
VHH: QVQLQESGGGLVQVGDSLRLSCVASGRIFGVNTRAWYRQAPGNQRELVAQISSGGNINYADSVKGRFTISMDKFTDTVYLQMNSLKPEDTAIYRCAAHRQHPYADVWGQGTQVSVSS
B21: VHH276B1 (VHH)
VHH: QVQLVESGGGLVQAGASLRLSCAASGRTFSSYAMGWFRQAPGKEREFVAAISGGTPNNIYYTNYKDAVRGRFTISRDNAKNTVYLQMSSLKPEDTAVYYCGATMGRYWNTGGYDYWGQGTQVTVSS
B22: VHH263B1 (VHH)
VHH: EVQLVESGGGLVQAGGSLRLSCAASGSKFSFNAMGWYRQTPGKQRELVAIIINGDMINYADSVKGRFTISRDNAKNTMYLQMNSLKPEDTAVYYCKMTRYVYDYWGQGTQVTVSS
B23: VHH54B1 (VHH)
VHH: QVQLVESGGGLVQAGGSLRLSCAASGGPFSGYVMGWFRQVSGKEREFVAGITGISSTYFADSVKGRFTISRDNAKNMVYLQMNSLKPEDTAVYYCAAVNSFGVIPTSPNGMDYWGKGTLVTVSS
B24: VHH115B1 (VHH)
VHH: QVQLVESGGGLVQAGGSLRLSCLASGRTSNYFMGWFRQAPGKEREFVAAISRSGGGTWYADSVKGRFAISRDNAKNTVNLQMNSLKREDTAVYYCAADRRTGTSVYTVDEYDYWGQGTQVTVSS
B25: VHH238B1 (VHH)
VHH: QLQLVESGGGLVQPGGSLRLSCAASGFTFSSYGMSWVRQAPGKGLEWVSYISAGGGTTTYVDFVKGRFTISRDNAKNMLYLQMNSLKPEDTAVYYCVHAADGSRGQGTQVTVSS
B26: VHH233B1 (VHH)
VHH: QVQLVESGGGLVQAGGSLRLSCAASRSISSFNEMAWYRQAPGEQRELVATIVSTVGFTNYADSVKGRFTISRDNAKNTVYLQMNSLKAEDTAVYYCNARRISTDYWGQGTQVTVSS

Positions count from the first letter of the chain named.

One test has as its target T1, cyno IL-12RB1 with C-terminal FLAG tag, transiently expressed on HEK-293T cells (cyno, UniProt A0A2K5VWV1 24-662).
T1 construct: whole, on cells
The test is described as follows: FACS, periplasmic extract, HEK-293T. Background: A flow cytometer gives signals particle by particle.
B1 showed an FOB of 184 fold.
Same read-out and setting: with B2 the figure was 42 fold; with B3, 88 fold.
Same read-out and setting: the value for B4 was 88 fold.
Molecule B5 came in with an FOB of 50 fold.
In the case of B6, the FOB was 99 fold.
B7 came in with an FOB of 68 fold.
Still for that read-out and setting: the value for B8 was 58 fold.
Same read-out and setting: with B9 the figure was 121 fold; with B10, 19 fold; with B11, 129 fold.
B12 yielded an FOB of 161 fold.
Still for that read-out and setting: the value for B13 was 36 fold; that for B14 was 120 fold; that for B15 was 82 fold.
Same read-out and setting: the value for B16 was 152 fold.
Molecule B17 registered an FOB of 64 fold.
On the same count and under the same terms, the value for B18 was 106 fold; that for B19 was 91 fold.
On the same count and under the same terms, with B20 the figure was 21 fold; with B21, 24 fold; with B22, 89 fold.
For the molecule B23, the FOB was 19 fold.
B24 came in with an FOB of 62 fold.
Still for that read-out and setting: the value for B25 was 44 fold; that for B26 was 81 fold.

The target in another test is T2, human IL-12RB1 with C-terminal FLAG tag, transiently expressed on HEK-293T cells (human, UniProt P42701 24-662).
T2 construct: whole, on cells
Put plainly: FACS, periplasmic extract, HEK-293T.
B1: the FOB was 260 fold.
Same read-out and setting: with B2 the figure was 86 fold; with B3, 80 fold; with B4, 82 fold.
Same read-out and setting: with B5 the figure was 75.1 fold; with B6, 133 fold.
Still for that read-out and setting: the value for B7 was 80 fold; that for B8 was 78 fold; that for B9 was 160 fold.
In the case of B10, the FOB was 48 fold.
B11 registered an FOB of 78 fold.
The same measure, in the same setting: with B12 the figure was 152 fold.
Same read-out and setting: with B13 the figure was 78 fold; with B14, 117 fold.
The same measure, in the same setting: the value for B15 was 88 fold.
Molecule B16 registered an FOB of 116 fold.
Still for that read-out and setting: with B17 the figure was 104 fold; with B18, 132 fold; with B19, 183 fold.
Molecule B20 had an FOB of 24 fold.
Same read-out and setting: with B21 the figure was 31 fold; with B22, 105 fold.
The same measure, in the same setting: the value for B23 was 43 fold; that for B24 was 101 fold; that for B25 was 50 fold.
Still for that read-out and setting: the value for B26 was 146 fold.

Another test concerns the target T3, human IL-12Rβ1-his (Acro Biosystems), biotinylated (human, UniProt P42701 24-545, biotinylated).
T3 construct: bought; captured on Neutravidin in the ELISA; also called Bio-huIL-12Rβ1-His
Put plainly: ELISA, periplasmic extract. In general terms: An ELISA detects its analyte on a solid surface through an enzyme-linked reagent.
Molecule B1 had an OD450 nm of 2.73.
The same measure, in the same setting: the value for B2 was 0.125.
In the case of B3, the OD450 nm was 2.84.
Regarding B4, the OD450 nm stood at 3.03.
B5: the OD450 nm is 3.14.
On the same count and under the same terms, with B6 the figure was 0.409; with B7, 1.19; with B8, 2.93.
Same read-out and setting: the value for B9 was 0.479.
Same read-out and setting: with B10 the figure was 0.413; with B11, 1.28; with B12, 2.97.
Turning to B13, the OD450 nm came to 3.12.
Still for that read-out and setting: with B14 the figure was 1.98.
The same measure, in the same setting: with B15 the figure was 2.93; with B16, 3.31.
Still for that read-out and setting: with B17 the figure was 0.422; with B18, 0.151; with B19, 3.3.
B20: the OD450 nm was found to be 2.85.
Turning to B21, the OD450 nm stood at 3.2.
On the same count and under the same terms, the value for B22 was 0.144.
Still for that read-out and setting: with B23 the figure was 0.822; with B24, 1.9.
The same measure, in the same setting: with B25 the figure was 3.33; with B26, 0.349.
